The target of test [1] is platelet Fc-gamma RIIA (human) (UniProt P12318). The test is described as follows: cell-based or functional assay.
For test [2], the target named is T1, hPF4/heparin complex (human, UniProt P02776 32-101).
T1 construct: hPF4 (10 micrograms per milliliter) complexed with heparin (0.2 Units/milliliter in the standard ELISA); heparin is a glycosaminoglycan and not a protein chain; also called P/H
T1 sequence (looked up): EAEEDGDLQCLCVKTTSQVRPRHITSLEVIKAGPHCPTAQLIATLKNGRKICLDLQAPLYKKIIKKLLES
The experiment in a line: ELISA, wells coated with hPF4/heparin or hPF4 alone. How it is done: (§1) The binding of antibody to either PF4, PF4 variants, PF4 bound to various GAGs or other chemokines complexed to heparin, was measured using an ELISA-based method as previously described (Arepally et al., 1995, Am. J. Clin. Pathol. 104:648). Briefly, to screen hybridoma culture supematants, 96-well microtiter plates were coated overnight at room temperature with 50 micoliters per well of phosphate buffered saline (PBS) containing PF4 (final concentration 10 micrograms per milliliter) in the presence or absence of heparin (0.2 Units/milliliter). The plates were then washed three times with TBS/0.01% Tween-20, blocked with 10% fetal calf serum (FCS) (200 microliters per well) in PBS for 2 hours at room temperature, and washed once more. Culture supernatant was added (50 microliters per well) for 1 hour at room temperature. Non-bound antibody was removed by washing, and 50 microliters per well of alkaline-phosphatase conjugated goat anti-mouse IgG, diluted 1:1000 in 10% FCS/PBS was added for 1 hour at room temperature. […] The binding of KKO to PF4 and related chemokines and the binding of KKO to PF4 bound to various GAGs, was measured in the same manner, except that an incubation volume of 100 microliters per well was used.

The target of test [3] is T2, hNAP-2 complexed to heparin (human, UniProt P02775 59-128).
T2 construct: mature; Complexed to heparin in the ELISA; NAP-2 is its C-terminal product
T2 sequence (looked up): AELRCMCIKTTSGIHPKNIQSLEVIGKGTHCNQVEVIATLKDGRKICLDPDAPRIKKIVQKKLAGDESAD
The test is described as follows: ELISA, chemokine complexed to heparin. How it is done:
as §1
For orientation: ELISA stands for enzyme-linked immunosorbent assay.

Test [4] has as its target T3, hIL-8 complexed to heparin (human, UniProt P10145 21-99).
T3 construct: mature; Complexed to heparin in the ELISA
T3 sequence (looked up): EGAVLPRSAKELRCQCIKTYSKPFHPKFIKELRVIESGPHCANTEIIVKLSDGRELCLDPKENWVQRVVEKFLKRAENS
The experiment in a line: ELISA, chemokine complexed to heparin. Here is the method:
as §1

Test [5] deals with T4, murine PF4 complexed to heparin (murine, UniProt Q9Z126 30-105).
T4 construct: mature; Complexed to heparin in the ELISA; also called mPF4; mouse PF4
T4 sequence (looked up): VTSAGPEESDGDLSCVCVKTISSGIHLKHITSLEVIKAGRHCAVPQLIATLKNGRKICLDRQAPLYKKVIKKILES
The test is described as follows: ELISA, mPF4 complexed to heparin. Here is the method:
as §1

Test [6] deals with T1, hPF4/heparin complex. The experiment in a line: ELISA, KKO at concentrations less than 0.14 micrograms per milliliter. How it is done:
as §1, with “temperature.” for “temperature. Non-bound antibody was removed by washing, and 50 microliters per well of alkaline-phosphatase conjugated goat anti-mouse IgG, diluted 1:1000 in 10% FCS/PBS was added for 1 hour at room temperature.”
(§2) The relative specificity of KKO was determined by adding various dilutions of KKO to wells coated with hPF4/heparin complex or hPF4 alone. […] At concentrations less than 0.14 micrograms per milliliter, the ratio of binding of KKO to PF4/heparin complex vs. binding to PF4 alone as determined by A₄₀₅ was greater than 400. […]

The target of test [7] is T1, hPF4/heparin complex. The experiment in a line: ELISA, wells coated with hPF4/heparin. How it is done:
as §1, with “temperature.” for “temperature. Non-bound antibody was removed by washing, and 50 microliters per well of alkaline-phosphatase conjugated goat anti-mouse IgG, diluted 1:1000 in 10% FCS/PBS was added for 1 hour at room temperature.”
as §2

The record followed here is patent US20060040323A1 (SCIENCE AND TECHNOLOGY CORPORATION UNM, published 2006).

Broadly, the EC50 is the midpoint of the concentration-response curve. A higher EC50 goes with weaker potency.

Some results are limits rather than exact numbers.

Chain of platelet Fc-gamma RIIA (human) (P12318 34-317, form in doubt): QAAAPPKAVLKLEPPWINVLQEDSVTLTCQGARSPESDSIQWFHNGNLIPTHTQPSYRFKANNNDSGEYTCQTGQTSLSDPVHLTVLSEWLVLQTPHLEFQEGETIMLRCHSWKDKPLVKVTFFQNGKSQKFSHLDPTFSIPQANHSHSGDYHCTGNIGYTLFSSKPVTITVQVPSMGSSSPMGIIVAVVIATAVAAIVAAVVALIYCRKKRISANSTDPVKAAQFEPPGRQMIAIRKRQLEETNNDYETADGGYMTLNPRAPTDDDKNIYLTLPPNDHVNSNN

For the molecule “Fc-gamma RIIA blocking antibody mAb IV.3”, the 14C-serotonin release induced by KKO in test [1] was < 5 % release.

B1: murine monoclonal antibody KKO (antibody, V domains shown)
VH: EVQLQQSGAELVKPGASVKLSCKASGYTFTNYFIYWVKQRPGQGLEWIGEINPRNGDTDFNEKFESRATLTVDKSSSTAYMQLSSLTSEDSAIYYCTRSPYGNNYGFTYWGQGTLVTVSA
VL: DIQMIQSQKFMSTSVGDRVTVTCKASQNVGTNVAWYQQKPGQSPNALIYSASYRYSGVPDRFTGSGSGTDFTLTITNVQSEDLADYFCQQYNSYPLTFGTGTKLEIK
notes: Murine IgG2b kappa purified from ascites
As for B1, in the test with hPF4/heparin complex [2], the “A405 ratio to hPF4/heparin complex versus hPF4 alone” value was > 30 ratio. In addition, the binding result in test [3], in test [4] and in test [5] was “no binding” in each case. For the same molecule, the “ratio of binding to PF4/heparin complex vs. binding to PF4 alone (A405)” value in the test with hPF4/heparin complex [6] is > 400 ratio. Besides, the EC50 with hPF4/heparin complex [7] was 0.036 µg/mL.
